Data taken from the DeepSol protein solubility set.

Assay: soluble on expression in E. coli; label from the status in PepcDB or PDB records

Sequence	soluble on expression in E. coli
SNAMLKREMNIADYDAELWQAMEQEKVRQEEHIELIASENYTSPRVMQAQGSQLTNKYAEGYPGKRYYGGCEYVDVVEQLAIDRAKELFGADYANVQPHSGSQANFAVYTALLQPGDTVLGMNLAQGGHLTHGSPVNFSGKLYNIVPYGIDESGKIDYDEMAKLAKEHKPKMIIGGFSAYSGVVDWAKMREIADSIGAYLFVDMAHVAGLIAAGVYPNPVPHAHVVTTTTHKTLAGPRGGLILAKGGDEELYKKLNSAVFPSAQGGPLMHVIAGKAVALKEAMEPEFKVYQQQVAKNAKAMVEVFLNRGYKVVSGGTENHLFLLDLVDKNLTGKEADAALGRANITVNKNSVPNDPKSPFVTSGIRIGSPAVTRRGFKEAEVKELAGWMCDVLDNINDEATIERVKAKVLDICARFPVYA	soluble
SNAMNNTQKKLKVLFIGESWHIHMIHSKGYDSFTSSKYEEGATWLLECLRKGGVDIDYMPAHTVQIAFPESIDELNRYDVIVISDIGSNTFLLQNETFYQLKIKPNALESIKEYVKNGGGLLMIGGYLSFMGIEAKANYKNTVLAEVLPVIMLDGDDRVEKPEGICAEAVSPEHPVVNGFSDYPVFLGYNQAVARDDADVVLTINNDPLLVFGEYQQGKTACFMSDCSPHWGTQQFMSWPFYTDLWVNTLQFIARK	soluble
SNAMPMTLDLQPGQRLARGVARHLRAHGFVSVEEFVPARGLRVDVMGLGPKGEIWVIECKSSRADFQADAKWQGYLEWCDRYFWAVDMEFPAELLPAESGLLIADAYDAEIVRMAPEQKLAPARRKVLIQKFATHAARRLQALRDPEGHGIFE	soluble
SNAMRMIDIIEKKRDGHTLTTEEINFFIGGYVKGDIPDYQASSLAMAIYFQDMNDDERVALTMAMVNSGDMIDLSDIKGVKVDKHSTGGVGDTTTLVLAPLVAAVDVPVAKMSGRGLGHTGGTIDKLEAIDGFHVEIDEATFVKLVNENKVAVVGQSGNLTPADKKLYALRDVTGTVNSIPLIASSIMSKKIAAGADAIVLDVKTGSGAFMKTLEDAEALAHAMVRIGNNVGRNTMAIISDMNQPLGRAIGNALELQEAIDTLKGQGPKDLTELVLTLGSQMVVLANKAETLEEARALLIEAINSGAALEKFKTFIKNQGGDETVIDHPERLPQAQYQIEYKAKKSGYVTELVSNDIGVASMMLGAGRLTKEDDIDLAVGIVLNKKIGDKVEEGESLLTIHSNRQDVDDVVKKLDSSITIADHVVSPTLIHKIITE	soluble
SNAYRGPEAFLKLPKDLKDREALQDIMQDIGNSDDILAAVVLSATPGAVEAFRKNGETIRITGDGLKAAHRFLSNDPKIGEKRIRPGALIRVKKTEKGSWQIVQLP	soluble
SNEGKELSTFCRKFEVPLRKALEKAGRLVDDPGRPRLLLTFISGRRVFVGVASASNSALWPMGIPRLKFPREAPSRSTLKLEEAWHQFIPREQWEQRLGDDMTGVDLGASPGGWTYQLVRRGMLVTAIDNGPMAESLMDTGLVQHLMADGFTWQPKQPVDWMVCDIVEKPARTTSLIETWLGEGLCREAVVNLKLPMKQRYAEVRRLLDRMEATFKARKIRVSIACKQLYHDREEVTCHLRRLDLK	not soluble
SNRVNDPLIFIRDIKPGLKNLNVVFIVLEIGRVTKTKDGHEVRSCKVADKTGSITISVWDEIGGLIQPGDIIRLTRGYASMWKGCLTLYTGRGGELQKIGEFCMVYSEVPNFSEPNPDYRGQQNKGAQSEQKNNSMNSNMGTGTFGPVGNGVHTGPESREHQFSHAGRSNGRGLINPQLQGTASNQTVMTTISNGRDPRRAFKR	soluble
SPAKTPIYLKSNYSKKGKKCRLRDILSPDMISPPLGDFRHTIHIGKGGECDAFGDMSFLQGNFELLPGKGGRVRPQYGLHGEFTRANSASDASYVETPSPVLKNAISLPTIGGSQALTLPMISTTVFPMTHDNMSEPSTPPAGSEDLEILQMETLLQSISIFRSDPSPVPEEDEPMIDRMEMNEKSCMKKMHSSEKELETFLSVFVNGNGDANGNFNNGNNGDSVFQYEQDMFSIKGDWADRDSGVEEGRLCDSDFEISKSKSQSQESLPQITGSLFSLELDLGPSILDDVLNIMNKPVS	soluble
SPASGPGPRRVQRRAWPPDKEQEKEKKSVICVEGNIASGKTTCLEFFSNATDVEVLTEPVSKWRNVRGHNPLGLMYHDASRWGLTLQTYVQLTMLDRHTRPQVSSVRLMERSIHSARYIFVENLYRSGKMPEVDYVVLSEWFDWILRNMDVSVDLIVYLRTNPETCYQRLKKRCREEEKVIPLEYLEAIHHLHEEWLIKGSLFPMAAPVLVIEADHHHMERMLELFEQNRDRILTPENRKHCP	soluble
SPSKVQELSVYEINELDRHSPKILKNAFSLMFGLGDLVPFTNKLYTGDLKKRVGITAGLCVVIEHVPEKKGERFEATYSFYFGDYGHLSVQGPYLTYEDSFLAITGGAGIFEGAYGQVKLQQLVYPTKLFYTFYLKGLANDLPLELTGTPVPPSKDIEPAPEAKALEPSGVISNYTN	not soluble
SQEKVSIEQQLAVESIRKFLNSKTSYDVLPVSYRLIVLDTSLLVKKSLNVLLQNSIVSAPLWDSKTSRFAGLLTTTDFINVIQYYFSNPDKFELVDKLQLDGLKDIERALGVDQLDTASIHPSRPLFEACLKMLESRSGRIPLIDQDEETHREIVVSVLTQYRILKFVALNCRETHFLKIPIGDLNIITQDNMKSCQMTTPVIDVIQMLTQGRVSSVPIIDENGYLINVYEAYDVLGLIKGGIYNDLSLSVGEALMRRSDDFEGVYTCTKNDKLSTIMDNIRKARVHRFFVVDDVGRLVGVLTLSDILKYILLGS	soluble
SQLADAEKINVPFPSSQTVVRLGQIGIDHHNQNYFPLMVGNYILGGGTLVSRLGTEVREKRGLTYGIDSQFVPMLGEGPFIISLSTKNSEARNALHITQDTLIKFIKNGPNQEELASAKQYLTGSFPLSLGSNTNIANLLLRMAFYHLPDNYLDTYVAKINAVTDAEIKQAFQQQVNPEKLLLVTVGQ	not soluble
SQLVECVPNFSEGKNQEVIDAISRAVAQTPGCVLLDVDSGPSTNRTVYTFVGRPEDVVEGALNAARAAYQLIDMSRHHGEHPRMGALDVCPFIPVRGVTMDECVRCAQAFGQRLAEELGVPVYLYGEAARTAGRQSLPALRAGEYEALPEKLKQAEWAPDFGPSAFVPSWGATVAGARKFLLAFNINLLSTREQAHRIALDLREQGRGKDQPGRLKKVQAIGWYLDEKNLAQVSTNLLDFEVTGLHTVFEETCREAQELSLPVVGSQLVGLVPLKALLDAAAFYCEKENLFLLQDEHRIRLVVNRLGLDSLAPFKPKERIIEYLV	soluble
SRKRLSAPELRLSLTKGPGNDGASPTQSAPSSPDGSSDLEIDELETPSDSEQLDSGHEFEWEDELPRAEGLGTSETAERLGRGCMWDVTGEDGHHWRVFRMGPREQRVDMTVIEPYKKVLSHGGYHGDGLNAVILFASCYLPRSSIPNYTYVMEHLFRYMVGTLELLVAENYLLVHLSGGTSRAQVPPLSWIRQCYRTLDRRLRKNLRALVVVHATWYVKAFLALLRPFISSKFTRKIRFLDSLGELAQLISLDQVHIPEAVRQLDRDLHGSGGT	soluble
SRLSIDLYPKIETSNIMVVTSYAGASASDIENNVTKVLENTLNGVSNLKHITSKSRENASVITLQFNEGVDIEVATNDVRDKLDAVSNFLPDDVNKPMIFKFGTDDIPITMLSVQAKESTMALSKILEDKVTNALARLDGVGAVSIMGTVKREIQVYCDPAKLEAYNLTVEAVSQIISAENKNVPAGLIDLGNKTSSIRIQGEFADARQLNQIVVASVGGRNVYLSDVARVEDTHAENEQESYNNNVRGAMIMINKQSGANSVAISRAVRGALPEIQASLPSDVELGTIFDTSDNIVNTINSLRD	not soluble
SRVLMEQPGYAQMRKLILFQQYQFEPLFVRQKVGFDIDSVTQSTADALYITPSNQYPMGTTLNTEQRAQIIEWASNQEAWILEDDYDSEFQFAHRPYTSLQGLAAQMGRDERVLYIGSFSKVMFNGLRLGYLVVPESLVDKCLMVKDALSGDTPSHIQAAMADFISEGSLLRHIRKMRRVYKSKHEQVCFSIQHYFGDKVRVISQAAGLHVTLSWQQGIDENTWTQRAKKAGIVMRPVSFYEHPDFKARDWQGVVIGYGNVRLDNIDPLIKRLFELFDV	not soluble
SSAKSAISKEIFAPLDERMLGAVQVKRRTKKKIPFLATGGQGEYLTYICLSVTNKKPTQASITKVKQFEGSTSFVRRSQWMLEQLRQVNGIDPNGDSAEFDLLFENAFDQWVASTASEKCTFFQILHHTCQRYLTDRKPEFINCQSKIMGGNSILHSAADSVTSAVQKASQALNERGERLGRAEEKTEDLKNSAQQFAETAHKLAMKHKC	soluble
SSDKDDIETPLLTEAAPILEDGNCEPAKNSESVDQGAKPESKSEPVVSTRKRPETKPSSDLETSKVLPIQDNVSKDVPQTRWGYWGSWGKSILSSASATVATVGQGISNVIEKAETSLGIPSPSEISTEVKYVAGETNAKENENSSPVAGAFGVFSTISTAVQSTGKSVISGGLDALEFIGKKTMDVIAEGDPGFKRTKGLMNRNATLSQVLREAKEKEEIRTSNEVTVETDKKTHYGLLFDEFQGLSHLEALEMLSQESEIKVKSILNSLSGEELETLKVELEQLKETFSLAEFCEEEEEEKKGDEDFTKDITELFSQLHVSSKPEKLARARNTAHEWIRKSLTKPLAENEEGEKQSEAENTEQVNKNSIEDIHAFAIRSLAELTACSIELFHKTAALVLHGRKQEVTAIERSQTLSQMTIVLCKELSSLSKEFTTCLTTAGVKEMADVLNPLITAVFLEASNSASYIQDAFQLLLPVLEISLIENKIESHRHELQGQKPLLEH	soluble
SSENQKEVSPPQAISVKSEASSSIFSKPISTSSPAGLAAAQRVTPGKLSTLLLEMGPLAIRHITQTLCLDIPCFKDLSSSKQRRLIMSAMESGDKEKSVVFEKIGWGQWSAKRVDPANFDKELEATNFANAKVKDLISQESQRRKSNNSNSNSGGKVEMPMKVEHNITNIDGATTPPTAVASTTIPVNIKRSKSPLAAANVVYIDENALASEDEDEEFDEDDHHLHYQNKSRNSSNNFGKSSNGDPYSFGRRRSQVVFADSTPENIEHEIIAQKIRPLLRNRRRSSIKPHTPFISKLNTHQDSSYLSPNTTSTTTPSNNNSNSNQAKIDLEKLTATSEPTSRRASRLSVSKESSIRSTLFPNKNYLIVTTNPNSKATSVSTSPKLEEQMNVSSNPIVLSDKEKHRVASQHLNGESSPQLVPHSHHQPHSDTDEEDWESIGAASLRNNSLAPNIDSVASSTNGVVSPKPTNPSFTNSQNGDIEPPLQHDQQKHEQQPRNGEDNSAAFLLMSLKS	soluble
SSESIRMVLIGPPGAGKGTQAPNLQERFHAAHLATGDMLRSQIAKGTQLGLEAKKIMDQGGLVSDDIMVNMIKDELTNNPACKNGFILVGFPRTIPQAEKLDQMLKEQGTPLEKAIELKVDDELLVARITGRLIHPASGRSYHKIFNPPKEDMKDDVTGEALVQISDDNADALKKRLAAYHAQTEPIVDFYKKTGIWAGVDASQPPATVWADILNKLGKN	soluble
SSFSWDNCDEGKDPAVIRSLTLEPDPIIVPGNVTLSVMGSTSVPLSSPLKVDLVLEKEVAGLWIKIPCTDYIGSCTFEHFCDVLDMLIPTGEPCPEPLRTYGLPCHCPFKEGTYSLPKSEFVVPDLELPSWLTTGNYRIESVLSSSGKRLGCIKIAASLKGI	soluble
